Assay results as given in paper PMC9972910.

Tests used:
[1] = target: LptB2FG complex (Escherichia coli) (UniProt P0A9V1); experiment: SPR; LptB2FG or LptB2F^R212GG covalently immobilised, increasing concentrations of monomeric LptA flowed over; fitted at equilibrium; details in Text S1
[2] = target: LptB2F^R212GG complex (Escherichia coli) (UniProt P0A9V1); experiment: as above

monomeric version of LptA (from UniProt P0ADV1 28-159) (domain or fragment)
Kd [1]: 74 µM
Kd [2]: 81 µM
